The sequences below were run on GST-Co-NF-kB RHD-only (Capsaspora owczarzaki) (assay: PBM). Details: ~300 nM protein; EMSA: 10 mM HEPES pH 7.8, 50 mM KCl, 1 mM DTT, 1 mM EDTA, 4% glycerol, 40 ug/ml poly-dI-dC, 2X BSA, 50 ug 293T extract, 30 C 30 min; PBM: 6 mM HEPES pH 7.8 ….

| Sequence | binding signal [PBM z-score] |
| --- | --- |
| CCGATTAACATCAAGGAATTCCCTGATGTTAATCGG (double strand) [PBM probe AGGAATTCCC] | 4.22 |
| CCGATTAACATCACGGAATTCCCTGATGTTAATCGG (double strand) [PBM probe CGGAATTCCC] | 3.4 |
| CCGATTAACATCAGGAATTCCCATGATGTTAATCGG (double strand) [PBM probe GGAATTCCCA] | 4.61 |
| CCGATTAACATCAGGAATTCCCCTGATGTTAATCGG (double strand) [PBM probe GGAATTCCCC] | 7.64 |
| CCGATTAACATCAGGGAATTCCCTGATGTTAATCGG (double strand) [PBM probe GGGAATTCCC] | 7.25 |
